Experimental findings from patent publication US20230129812A1 (ACCELERON PHARMA, published 2023) are described below.

Assay [1] addresses T1, GDF8 (UniProt O14793 267-375).
T1 construct: also called myostatin
T1 sequence (looked up): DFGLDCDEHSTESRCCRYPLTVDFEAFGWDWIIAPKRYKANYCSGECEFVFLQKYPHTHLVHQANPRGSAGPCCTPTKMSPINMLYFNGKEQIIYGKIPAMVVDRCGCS
The experiment in a line: SPR (Biacore); receptor-Fc captured by anti-Fc antibody, ligand injected. Here is the method:
(§1) A Biacore™-based binding assay was used to compare ligand binding selectivity of the ALK4-Fc:ActRIIB-Fc heterodimeric complex described above with that of ActRIIB-Fc and ALK4-Fc homodimer complexes. The ALK4-Fc:ActRIeB-Fc heterodimer, […], and ALK4-Fc homodimer were independently captured onto the system using an anti-Fc antibody. Ligands were injected and allowed to flow over the captured receptor protein. Results are summarized in Table 13 below, in which ligand off-rates (kd) most indicative of effective polypeptides are denoted in bold.

In assay [2] the target is T2, activin A (UniProt P08476 311-426).
T2 construct: also called ActA
T2 sequence (looked up): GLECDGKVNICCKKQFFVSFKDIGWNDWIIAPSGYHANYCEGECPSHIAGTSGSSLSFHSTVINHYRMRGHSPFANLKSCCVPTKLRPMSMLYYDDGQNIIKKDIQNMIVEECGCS
The assay is described as above. Here is the method: as §1

In a further assay the target is T3, BMP10 (UniProt O95393 317-424).
T3 sequence (looked up): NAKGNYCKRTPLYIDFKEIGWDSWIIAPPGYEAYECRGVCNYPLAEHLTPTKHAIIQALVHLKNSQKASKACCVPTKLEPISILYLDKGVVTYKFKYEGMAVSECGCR
The assay is described as above. The protocol:
as §1

A further assay has as its target T4, BMP6 (UniProt P22004 375-513, limits assumed).
T4 sequence (looked up): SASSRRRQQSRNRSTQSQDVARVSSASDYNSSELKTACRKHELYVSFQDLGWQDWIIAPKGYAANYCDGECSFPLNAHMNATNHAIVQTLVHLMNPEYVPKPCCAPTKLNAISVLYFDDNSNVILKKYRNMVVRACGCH
The description is as above. The protocol:
as §1

Assay [3] deals with T5, GDF11 (UniProt O95390 299-407).
T5 construct: also called BMP11
T5 sequence (looked up): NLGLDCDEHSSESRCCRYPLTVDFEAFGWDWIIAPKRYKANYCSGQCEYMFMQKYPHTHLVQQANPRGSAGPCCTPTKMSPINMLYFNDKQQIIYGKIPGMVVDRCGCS
Described as above. Here is the method: as §1

In a further assay the target is T6, GDF3 (UniProt Q9NR23 251-364).
T6 construct: also called VGR2
T6 sequence (looked up): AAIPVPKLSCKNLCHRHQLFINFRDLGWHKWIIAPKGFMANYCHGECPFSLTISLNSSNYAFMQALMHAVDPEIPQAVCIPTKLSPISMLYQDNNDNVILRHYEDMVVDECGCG
The assay is described as above. The protocol:
as §1

In another assay the target is T7, activin B (UniProt P09529 293-407).
T7 sequence (looked up): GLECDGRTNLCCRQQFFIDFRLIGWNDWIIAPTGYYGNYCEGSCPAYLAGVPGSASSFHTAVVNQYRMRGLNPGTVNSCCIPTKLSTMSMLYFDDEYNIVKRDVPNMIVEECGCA
The assay is described as above. The protocol: as §1

Another assay has as its target T8, BMP9 (UniProt Q9UK05 320-429).
T8 construct: also called GDF2
T8 sequence (looked up): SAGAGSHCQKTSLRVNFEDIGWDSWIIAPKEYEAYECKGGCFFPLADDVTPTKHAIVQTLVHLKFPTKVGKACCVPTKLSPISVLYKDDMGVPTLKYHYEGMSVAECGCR
Described as above. Here is the method:
as §1

Assay [4] addresses T1, GDF8. The experiment in a line: SPR (Biacore); receptor-Fc captured by anti-hFc antibody, ligand injected. The protocol: (§2) Binding of certain ActRIIB-Fc proteins and ActRIIB variant Fc fusion polypeptides to ligands was tested in a Biacore™ assay.
(§3) The ActRIIB-Fc variants or wild-type protein were captured onto the system using an anti-hFc antibody. Ligands were injected and flowed over the captured receptor proteins.
(In SPR one partner is held on a chip, and binding of the other changes the refractive index at the surface.)

Assay [5] has as its target T2, activin A. The assay is described as above. Here is the method: as §2, §3
Assay [6] addresses T5, GDF11. Described as above. Here is the method:
as §2, §3

The target in assay [7] is T5, GDF11. Kind of assay: SPR (Biacore); ligand coupled, receptor flowed over (as reported in WO2006/012627); -- means <1/5 WT binding. The text has this: (§4) Other variants have been generated and tested, as reported in WO2006/012627 (incorporated herein by reference in its entirety). See, e.g., pp. 59-60, using ligands coupled to the device and flowing receptor over the coupled ligands. […] Table 11 showing data with respect to these variants is reproduced below: […]

Assay [8] addresses T2, activin A. The experiment in a line: SPR (Biacore); ligand coupled, receptor flowed over (as reported in WO2006/012627).
Description: as §4

Numbering of substitutions follows the chain as printed. Numbers in names are those of the source. A value given as a limit tells only on which side of the number the result lay.

B1: ActRIIB-Fc homodimer (Fc fusion)
chain: GRGEAETRECIYYNANWELERTNQSGLERCEGEQDKRLHCYASWRNSSGTIELVKKGCWLDDFNCYDRQECVATEENPQVYFCCCEGNFCNERFTHLPEAGGPEVTYEPPPTAPTGGGTHTCPPCPAPELLGGPSVFLFPPKPKDTLMISRTPEVTCVVVDVSHEDPEVKFNWYVDGVEVHNAKTKPREEQYNSTYRVVSVLTVLHQDWLNGKEYKCKVSNKALPVPIEKTISKAKGQPREPQVYTLPPSREEMTKNQVSLTCLVKGFYPSDIAVEWESNGQPENNYKTTPPVLDSDGSFFLYSKLTVDKSRWQQGNVFSCSVMHEALHNHYTQKSLSLSPGK
notes: also called ActRIIB-Fc:ActRIIB-Fc homodimer
For the molecule B1, the dissociation constant Kd with GDF8 [1] was determined as 0.28 nM; with activin A [2], 0.019 nM; with BMP10, 0.011 nM; in the assay with BMP6 it was 0.19 nM; with GDF11 [3], 0.002 nM; in the assay with GDF3, 1.5 nM. The results for the Kd with activin B and in the assay with BMP9 were 0.02 nM and 0.077 nM, respectively. For the same molecule, the off-rate constant (koff) is 0.00023 s⁻¹ with GDF8 [1]; 0.00023 s⁻¹ with activin A [2]; 0.00026 s⁻¹ in the assay with BMP10; 0.0068 s⁻¹ with BMP6; 0.00011 s⁻¹ with GDF11 [3]; 0.0022 s⁻¹ in the assay with GDF3. The off-rate constant (koff) in the assay with activin B came to 0.0001 s⁻¹; with BMP9 it was 0.0011 s⁻¹. For the same molecule, the kon with GDF8 [1] stood at 830000 M⁻¹ s⁻¹; in the assay with activin A [2], 1.2e+07 M⁻¹ s⁻¹; with BMP10, 2.3e+07 M⁻¹ s⁻¹; with BMP6, 3.2e+07 M⁻¹ s⁻¹; in the assay with GDF11 [3] it was 5e+07 M⁻¹ s⁻¹; in the assay with GDF3 it was 1.4e+06 M⁻¹ s⁻¹. Also, the results for the kon with activin B and with BMP9 were 5.1e+06 M⁻¹ s⁻¹ and 1.4e+07 M⁻¹ s⁻¹, respectively.

B2: ActRIIB(20-134)-hFc (Fc fusion)
chain: B1 chain
notes: also called ActRIIB-hFc
Take B2: in the assay with GDF8 [4], the affinity, expressed as Kd, was 0.0935 nM and the off-rate (koff) came out at 3.45e-05 s⁻¹. In the assay with activin A [5], the affinity, expressed as Kd, was 0.0268 nM; the koff is 0.000159 s⁻¹; the kon came out at 5.94e+06 M⁻¹ s⁻¹. In the assay with GDF11 [6], this molecule showed a Kd of 0.0842 nM, a koff of 0.000113 s⁻¹ and a kon of 1.34e+06 M⁻¹ s⁻¹.

B3: ActRIIB(P129S, P130R 20-134)-hFc (Fc fusion)
chain: B1 chain with P110S, P111R
On to B3, for which, in the assay with GDF8 [4], the affinity, expressed as Kd, was 1.67 nM and the koff was found to be 0.00018 s⁻¹. Moreover, in the assay with activin A [5], the dissociation constant Kd was found to be 0.0831 nM, the koff turned out to be 0.000417 s⁻¹ and the kon came to 5.02e+06 M⁻¹ s⁻¹.

B4: ActRIIB(A24N 20-134)-hFc (Fc fusion)
chain: B1 chain with A5N
In the assay with activin A [5], B4 registered a Kd of 0.104 nM, a dissociation rate constant (koff) of 0.000346 s⁻¹ and a kon of 3.34e+06 M⁻¹ s⁻¹. In the assay with GDF11 [6], this molecule registered a Kd of 0.0519 nM and a koff of 6.35e-05 s⁻¹.

B5: ActRIIB(L79E 20-134)-hFc (Fc fusion)
chain: B1 chain with L60E
B5: in the assay with GDF8 [4], the affinity, expressed as Kd, was 2.41 nM and the koff amounted to 0.0009 s⁻¹. Moreover, in the assay with GDF11 [6], binding was characterised by a dissociation constant (Kd) of 0.716 nM and the koff turned out to be 0.000274 s⁻¹.

B6: ActRIIB(R64K 20-134)-hFc (Fc fusion)
chain: B1 chain with R45K
In the case of B6, the results for the Kd in the assay with GDF8 [4], in the assay with activin A [5] and in the assay with GDF11 [6] were 0.21 nM, 0.0476 nM and 0.0356 nM, respectively. The dissociation rate constant (koff) in the assay with GDF8 [4] came to 4.71e-05 s⁻¹; in the assay with activin A [5], 0.000325 s⁻¹; with GDF11 [6], 2.41e-05 s⁻¹. The kon in the assay with activin A [5] is 6.82e+06 M⁻¹ s⁻¹.

B7: ActRIIB(K74A 20-134)-hFc (Fc fusion)
chain: B1 chain with K55A
In the assay with GDF8 [4], B7 gave a Kd of 0.0718 nM and a koff of 2.03e-05 s⁻¹.

B8: ActRIIB(L79D 20-134)-hFc (Fc fusion)
chain: B1 chain with L60D
For the molecule B8, in the assay with GDF8 [4], binding was characterised by a dissociation constant (Kd) of 2.15 nM and the koff was determined as 0.00083 s⁻¹. In the assay with GDF11 [6], this molecule gave a dissociation constant Kd of 0.655 nM and an off-rate (koff) of 0.000439 s⁻¹.

B9: Soluble ActRIIB-Fc D80I (Table 11) (Fc fusion, UniProt Q13705 19-119, looked up, not shown: a dimerising Fc or GST)
chain: SGRGEAETRECIYYNANWELERTNQSGLERCEGEQDKRLHCYASWANSSGTIELVKKGCWLIDFNCYDRQECVATEENPQVYFCCCEGNFCNERFTHLPEA
B9: the “binding relative to WT” value with GDF11 [7] is less than 0.2 fold. Moreover, the binding result with activin A [8] is on record as “no binding”.

B10: Soluble ActRIIB-Fc K74I (Table 11) (Fc fusion, UniProt Q13705 19-119, looked up, not shown: a dimerising Fc or GST)
chain: B9 chain with K56I, I62D
As for B10, the “binding relative to WT” value in the assay with GDF11 [7] was less than 0.2 fold. Besides, the binding result in the assay with activin A [8] is “no binding”.

B11: Soluble ActRIIB-Fc K74F (Table 11) (Fc fusion, UniProt Q13705 19-119, looked up, not shown: a dimerising Fc or GST)
chain: B9 chain with K56F, I62D
Take B11: the “binding relative to WT” value with GDF11 [7] is less than 0.2 fold. Moreover, in the assay with activin A [8], the binding result is listed as “no binding”.

B12: Soluble ActRIIB-Fc K74Y (Table 11) (Fc fusion, UniProt Q13705 19-119, looked up, not shown: a dimerising Fc or GST)
chain: B9 chain with K56Y, I62D
Take B12: in the assay with GDF11 [7], the “binding relative to WT” value was less than 0.2 fold. In addition, the binding result in the assay with activin A [8] is listed as “no binding”.

B13: ActRIIB(R64K 20-129)-hFc (Fc fusion)
chain: GRGEAETRECIYYNANWELERTNQSGLERCEGEQDKRLHCYASWKNSSGTIELVKKGCWLDDFNCYDRQECVATEENPQVYFCCCEGNFCNERFTHLPEAGGPEVTYEPPGGGTHTCPPCPAPELLGGPSVFLFPPKPKDTLMISRTPEVTCVVVDVSHEDPEVKFNWYVDGVEVHNAKTKPREEQYNSTYRVVSVLTVLHQDWLNGKEYKCKVSNKALPVPIEKTISKAKGQPREPQVYTLPPSREEMTKNQVSLTCLVKGFYPSDIAVEWESNGQPENNYKTTPPVLDSDGSFFLYSKLTVDKSRWQQGNVFSCSVMHEALHNHYTQKSLSLSPGK
As to B13, in the assay with GDF8 [4], the dissociation constant Kd was found to be 2.15 nM and the koff was 0.000209 s⁻¹. In the assay with activin A [5], the Kd turned out to be 0.0841 nM, the koff came out at 0.000628 s⁻¹ and the kon stood at 7.46e+06 M⁻¹ s⁻¹.

A word on the Kd: it is the free concentration of one partner at which half of the binding sites on the other are occupied at equilibrium, for simple one-to-one binding. For orientation: koff means the first-order rate constant of dissociation. High values mean a short-lived complex, low ones a long-lived complex. One may read the kon as the rate constant with which the complex forms. Low readings indicate slow association, high ones fast association.
